{"source": "paper PMC3763426", "about": "“Genetic and structural validation of Aspergillus fumigatus N-acetylphosphoglucosamine mutase as an antifungal target” (Bioscience Reports, 2013)", "key": {"[1]": {"biological_target": "T1, AfAGM1 (A. fumigatus N-acetylphosphoglucosamine mutase) (Aspergillus fumigatus, UniProt Q4WJF0, DEL85-101)", "T1 construct": "gene AFUA_1G06210; deletion of VSSYGTFDGGMKGEFAD, residues 85–101 of XP_750370 (likely alternative splicing); GST tag cleaved; pSer69", "T1 sequence (Q4WJF0 entry or part of it DEL85-101)": "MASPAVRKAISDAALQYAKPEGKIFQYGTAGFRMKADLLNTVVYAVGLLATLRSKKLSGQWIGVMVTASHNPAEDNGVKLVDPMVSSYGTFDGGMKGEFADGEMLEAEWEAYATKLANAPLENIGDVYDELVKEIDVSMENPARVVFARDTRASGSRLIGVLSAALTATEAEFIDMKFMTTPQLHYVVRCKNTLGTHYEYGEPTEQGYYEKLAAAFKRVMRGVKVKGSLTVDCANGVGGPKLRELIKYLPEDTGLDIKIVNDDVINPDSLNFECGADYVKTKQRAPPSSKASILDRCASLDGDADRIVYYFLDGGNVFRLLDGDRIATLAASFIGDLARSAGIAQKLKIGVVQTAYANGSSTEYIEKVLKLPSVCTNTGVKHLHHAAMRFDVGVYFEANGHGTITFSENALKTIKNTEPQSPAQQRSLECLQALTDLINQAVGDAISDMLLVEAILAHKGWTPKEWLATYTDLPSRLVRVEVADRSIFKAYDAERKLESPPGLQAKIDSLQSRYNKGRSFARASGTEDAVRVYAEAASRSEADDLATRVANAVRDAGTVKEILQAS", "test": "direct HPAEC-PAD enzyme assay, […] Glc-1P", "type": "biochemical"}, "[2]": {"test_system": "CC(=O)N[C@H]1C(O)O[C@H](COP(=O)(O)O)[C@@H](O)[C@@H]1O", "test": "purified protein", "conditions": "Mg2+"}, "[3]": {"test_system": "O=P(O)(O)O[C@H]1O[C@H](CO)[C@@H](O)[C@H](O)[C@H]1O", "test": "purified protein", "conditions": "Mg2+"}, "[4]": {"biological_target": "T1, AfAGM1 (A. fumigatus N-acetylphosphoglucosamine mutase)", "test": "enzyme inhibition kinetics, Lineweaver–Burk plot", "type": "biochemical"}}, "data": [{"molecule": "NC(Cc1cc(O)c(O)cc1O)C(=O)O", "note": "(racemic) [compound 3, 6-hydroxy-DL-DOPA]", "values": [{"measurement": "IC50", "setting": "[1]", "value": "58 ± 4", "unit": "µM"}]}, {"molecule": "AfAGM1 (A. fumigatus N-acetylphosphoglucosamine mutase) (Aspergillus fumigatus Af293; DEL85-101)", "values": [{"measurement": "Km", "setting": "[2]", "value": "25 ± 8", "unit": "µM"}, {"measurement": "kcat", "setting": "[2]", "value": 0.21, "unit": "s⁻¹"}, {"measurement": "kcat/Km", "setting": "[2]", "value": 8400, "unit": "M⁻¹ s⁻¹"}, {"measurement": "Km", "setting": "[3]", "value": "1200 ± 100", "unit": "µM"}, {"measurement": "kcat", "setting": "[3]", "value": 37.6, "unit": "s⁻¹"}, {"measurement": "kcat/Km", "setting": "[3]", "value": 31300, "unit": "M⁻¹ s⁻¹"}]}, {"molecule": "Cc1nc(/N=N/c2ccc(C(=O)O)cc2)c(COP(=O)(O)O)c(C=O)c1O", "note": "[compound 4, tri-sodium 4-[(2z)-2-[4-formyl-6-metyl-5-oxo-3-(phosphonatooxymetyl)-pyridin-2-ylidene] hydrazinyl] benzoate]", "values": [{"measurement": "IC50", "setting": "[1]", "value": "7.1 ± 0.2", "unit": "µM"}]}, {"molecule": "Nc1ccc(O)c2c1C(=O)c1c(O)ccc(N)c1C2=O", "note": "[compound 1, 1,5-diamino-4,8-dihydroxyanthraquinone]", "values": [{"measurement": "Ki", "setting": "[4]", "value": "300 ± 13", "unit": "µM"}]}]}
